Data published in paper PMC8499050.

Tests used:
Assay in all cases: ITC
[1] = target: human activated factor IX (Homo sapiens) (UniProt P00740)
[2] = target: human activated factor X (Homo sapiens) (UniProt P00742)
[3] = target: human factor IX (zymogen) (Homo sapiens) (UniProt P00740)
[4] = target: human factor X (zymogen) (Homo sapiens) (UniProt P00742)
Chain of human factor X (zymogen) (Homo sapiens) (P00742 whole entry, looked up): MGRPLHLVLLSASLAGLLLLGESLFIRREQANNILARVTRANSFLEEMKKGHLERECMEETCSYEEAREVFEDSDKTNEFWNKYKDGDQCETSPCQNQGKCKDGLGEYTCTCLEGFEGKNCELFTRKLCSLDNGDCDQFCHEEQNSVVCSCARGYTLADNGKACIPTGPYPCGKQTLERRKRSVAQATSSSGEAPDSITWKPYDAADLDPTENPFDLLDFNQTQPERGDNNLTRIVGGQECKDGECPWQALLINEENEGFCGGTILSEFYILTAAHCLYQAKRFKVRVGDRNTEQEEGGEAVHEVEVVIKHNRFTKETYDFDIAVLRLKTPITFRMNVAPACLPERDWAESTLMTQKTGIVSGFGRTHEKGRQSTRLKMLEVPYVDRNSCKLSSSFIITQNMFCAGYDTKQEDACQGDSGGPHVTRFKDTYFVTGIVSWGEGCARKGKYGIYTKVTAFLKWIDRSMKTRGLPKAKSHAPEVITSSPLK

Chain of human factor IX (zymogen) (Homo sapiens) (P00740 47-461): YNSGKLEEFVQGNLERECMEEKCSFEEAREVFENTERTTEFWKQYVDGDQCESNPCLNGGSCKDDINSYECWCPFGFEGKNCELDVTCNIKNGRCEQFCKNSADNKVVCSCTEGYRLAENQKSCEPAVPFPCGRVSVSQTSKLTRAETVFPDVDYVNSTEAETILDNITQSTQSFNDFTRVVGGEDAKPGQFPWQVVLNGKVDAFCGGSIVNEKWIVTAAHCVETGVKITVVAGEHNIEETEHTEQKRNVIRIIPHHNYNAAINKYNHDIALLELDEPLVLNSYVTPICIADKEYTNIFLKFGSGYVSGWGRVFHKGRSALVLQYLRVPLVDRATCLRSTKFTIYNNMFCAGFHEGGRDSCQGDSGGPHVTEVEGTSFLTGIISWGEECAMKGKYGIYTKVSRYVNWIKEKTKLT
Chain of human activated factor X (Homo sapiens) (P00742 235-488, chain 1 of 2): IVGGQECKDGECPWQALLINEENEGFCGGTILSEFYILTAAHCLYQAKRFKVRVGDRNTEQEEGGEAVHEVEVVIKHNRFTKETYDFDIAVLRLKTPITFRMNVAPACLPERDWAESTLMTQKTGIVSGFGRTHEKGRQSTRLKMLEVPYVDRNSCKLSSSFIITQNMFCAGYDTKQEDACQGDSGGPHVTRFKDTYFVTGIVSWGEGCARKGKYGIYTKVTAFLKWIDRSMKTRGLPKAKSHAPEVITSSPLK
Chain of human activated factor X (Homo sapiens) (P00742 235-488, chain 2 of 2): as the sequence (P00742 235-488, chain 1 of 2) above
Chain of human activated factor IX (Homo sapiens) (P00740 47-191, chain 1 of 2): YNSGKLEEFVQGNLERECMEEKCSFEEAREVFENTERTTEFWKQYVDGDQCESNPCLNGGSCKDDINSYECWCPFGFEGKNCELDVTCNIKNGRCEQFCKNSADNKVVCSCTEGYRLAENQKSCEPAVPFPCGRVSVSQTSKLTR
Chain of human activated factor IX (Homo sapiens) (P00740 227-461, chain 2 of 2): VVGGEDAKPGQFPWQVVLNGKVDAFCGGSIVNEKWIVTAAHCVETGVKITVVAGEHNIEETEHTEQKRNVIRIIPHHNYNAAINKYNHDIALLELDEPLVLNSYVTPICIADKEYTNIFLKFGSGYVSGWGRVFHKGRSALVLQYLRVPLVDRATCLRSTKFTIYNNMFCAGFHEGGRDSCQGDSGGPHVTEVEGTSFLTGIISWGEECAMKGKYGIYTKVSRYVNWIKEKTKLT

How did the Kd [1] turn out when Mim8 (bispecific antibody) was run?
Its Kd is 2300 nM.

And the Kd [2]?
The Kd was 300 nM.

And the Kd [3]?
The Kd was 4.7 µM.

And the Kd [4]?
Its Kd is 1500 nM.
